Experimental data as given in US20240209099A1 (SUZHOU TRANSCENTA THERAPEUTICS, published 2024).

Columns and labels:
human VEGFR1 protein = target: T1, human VEGFR1 protein (human, UniProt P17948 27-756); assay: ELISA, 1 µg/ml antigen coated, 1 µg/ml antibody
T1 construct: also called Sino Biological 10136-H08H
Method: (§1) Briefly, 1 μg/ml human VEGFR1 (Sino Biological, cat #10136-H08H), VEGFR2 (Acrobiosystem, cat #KDR-H5227) and VEGFR3 (Sino Biological, cat #10806-H08H) protein were coated overnight at 4° C. 1 μg/ml humanized antibodies (48-H3L1 and 54-H2L1, produced in CHO cells or Ramucirumab from Eli Lilly Germany, lot #20150819) were added for binding to coated antigen. Secondary antibody HRP conjugated goat anti-human Fc antibody were added for detection of binding signal.

human VEGFR3 protein = target: T2, human VEGFR3 protein (human, UniProt P35916 25-776); assay: ELISA, 1 µg/ml antigen coated, 1 µg/ml antibody
T2 construct: also called Sino Biological 10806-H08H
T2 sequence (looked up): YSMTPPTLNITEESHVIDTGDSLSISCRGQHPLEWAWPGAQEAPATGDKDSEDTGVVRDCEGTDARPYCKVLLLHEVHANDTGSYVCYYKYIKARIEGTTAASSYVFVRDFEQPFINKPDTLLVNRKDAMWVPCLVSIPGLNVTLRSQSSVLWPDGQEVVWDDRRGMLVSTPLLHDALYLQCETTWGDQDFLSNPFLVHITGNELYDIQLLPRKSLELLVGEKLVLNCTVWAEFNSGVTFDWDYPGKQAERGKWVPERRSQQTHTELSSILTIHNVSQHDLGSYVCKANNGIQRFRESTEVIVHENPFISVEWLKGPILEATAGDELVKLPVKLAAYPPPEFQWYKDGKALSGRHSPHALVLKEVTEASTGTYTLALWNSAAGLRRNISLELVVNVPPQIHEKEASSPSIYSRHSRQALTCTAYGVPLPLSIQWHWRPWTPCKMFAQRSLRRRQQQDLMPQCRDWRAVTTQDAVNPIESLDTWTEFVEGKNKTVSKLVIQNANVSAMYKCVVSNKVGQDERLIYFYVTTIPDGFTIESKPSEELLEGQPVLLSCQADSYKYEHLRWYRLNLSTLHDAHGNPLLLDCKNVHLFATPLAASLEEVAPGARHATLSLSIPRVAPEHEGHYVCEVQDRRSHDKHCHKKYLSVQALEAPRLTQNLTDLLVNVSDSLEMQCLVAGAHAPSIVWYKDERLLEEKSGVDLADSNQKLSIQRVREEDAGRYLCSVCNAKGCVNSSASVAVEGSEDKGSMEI
Method: as §1

T1 sequence (P17948 27-756 limits assumed): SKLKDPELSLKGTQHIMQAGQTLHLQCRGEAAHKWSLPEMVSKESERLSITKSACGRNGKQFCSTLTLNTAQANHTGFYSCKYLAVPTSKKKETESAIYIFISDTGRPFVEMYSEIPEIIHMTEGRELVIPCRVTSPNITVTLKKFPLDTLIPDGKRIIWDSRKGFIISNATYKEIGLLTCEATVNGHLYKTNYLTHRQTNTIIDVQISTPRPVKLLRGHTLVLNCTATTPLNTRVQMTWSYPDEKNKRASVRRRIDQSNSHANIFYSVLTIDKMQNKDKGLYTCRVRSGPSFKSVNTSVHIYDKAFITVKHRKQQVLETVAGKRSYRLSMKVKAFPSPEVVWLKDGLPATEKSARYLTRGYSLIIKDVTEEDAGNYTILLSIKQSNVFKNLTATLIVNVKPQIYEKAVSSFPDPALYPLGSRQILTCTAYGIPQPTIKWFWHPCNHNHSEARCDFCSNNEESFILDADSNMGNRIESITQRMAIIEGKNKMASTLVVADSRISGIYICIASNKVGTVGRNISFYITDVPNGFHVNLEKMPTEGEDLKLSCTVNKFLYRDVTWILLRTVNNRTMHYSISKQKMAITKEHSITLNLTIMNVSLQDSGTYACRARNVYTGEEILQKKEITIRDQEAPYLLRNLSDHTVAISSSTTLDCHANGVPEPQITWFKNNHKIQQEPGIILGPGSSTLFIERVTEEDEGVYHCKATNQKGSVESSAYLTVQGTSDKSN

B1: 54-H2L1 (humanized Mab54) (antibody, human IgG1, V domains shown)
VH: EVQLVESGGGLVKPGGSLRLSCAASGFTFSMYGMSWVRQAPGKRLEWVASISIGGSYTYYADSVKGRFTISRDNAKNTLYLQMNSLRAEDTAVYYCARELDGNYDYWGQGTTLTVSS
VL: DIVITQDELSLPVTFGESVSISCRSSKSLLYKDGKTYLNWFLQRPGQSPQLLIYLMSTRASGVSDRFSGSGSGTDFTLKISRVEAEDVGIYYCQQLVEYPFTFGSGTKLEIK
notes: also called 54-H2L1 (CHO); humanized 54 variant H2L1
B1: no binding (tested: 1 µg/ml) (human VEGFR1 protein); no binding (tested: 1 µg/ml) (human VEGFR3 protein).
